These substances were tested against human Mdm2 (1-125) (assay: fluorescence anisotropy competition assay (FAM-12/1 tracer)). Details: tested in duplicate; parent MP-081 KD = 5 nM.

Substance | ratio to parent
azide-ATSP-7041 (MP-081) A8E | < 2 x (within)
azide-ATSP-7041 (MP-081) A8W | < 2 x (within)
azide-ATSP-7041 (MP-081) A13a (a = D-alanine) | < 2 x (within)
azide-ATSP-7041 (MP-081) A14E | > 2 x stronger
azide-ATSP-7041 (MP-081) A14hR (hR = homo-arginine) | < 2 x (within)
azide-ATSP-7041 (MP-081) L1E | < 2 x (within)
azide-ATSP-7041 (MP-081) L1H | < 2 x (within)
azide-ATSP-7041 (MP-081) Q9H | < 2 x (within)
azide-ATSP-7041 (MP-081) Q9K | < 2 x (within)
azide-ATSP-7041 (MP-081) S12E | > 2 x stronger
azide-ATSP-7041 (MP-081) S12H | < 2 x (within)
azide-ATSP-7041 (MP-081) S12a (a = D-alanine) | < 2 x (within)
azide-ATSP-7041 (MP-081) S12hR (hR = homo-arginine) | < 2 x (within)
azide-ATSP-7041 (MP-081) T2K | < 2 x (within)
azide-ATSP-7041 (MP-081) T2hR (hR = homo-arginine) | < 2 x (within)
azide-ATSP-7041 (MP-081) W7(6F-1-W) (6F-1-W = 6-Fluoro-1-Trp) | > 2 x stronger
azide-ATSP-7041 (MP-081) W7(DC-F) (DC-F = 3,4-Dichloro-Phe) | < 2 x (within)
azide-ATSP-7041 (MP-081) W7(TFm-F) (TFm-F = trifluoromethyl-Phe) | > 2 x stronger

What follows are substances tested against human Mdm2 1-125 (human) (assay: fluorescence polarisation; competitive fluorescence anisotropy: unlabelled peptide titrated against 250 nM Mdm2 (1-125) with 50 nM FAM-labelled 12/1 peptide (FAM-…-NH2); PBS pH 7.4, 0.001% Tween-20; apparent Kd, geometric means). Details: not given.
Sequence of human Mdm2 1-125 (human) (Q00987 1-125): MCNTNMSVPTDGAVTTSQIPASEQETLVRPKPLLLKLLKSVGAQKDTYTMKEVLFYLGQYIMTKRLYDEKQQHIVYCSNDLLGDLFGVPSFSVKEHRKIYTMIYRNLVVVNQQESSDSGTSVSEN

Kd | Substance
8.5 nM | AZIDE-ATSP-7041 (A8W) (peptide)
0.7 nM | AZIDE-ATSP-7041 (A14E) (peptide)
115 nM | AZIDE-ATSP-7041 (CBA10 TO A) (peptide)
11.5 nM | AZIDE-ATSP-7041 (E5 TO D-ALA) (peptide)
47.7 nM | AZIDE-ATSP-7041 (E5A) (peptide)
68.2 nM | AZIDE-ATSP-7041 (E5G) (peptide)
7840 nM | AZIDE-ATSP-7041 (E5P) (peptide)
98.5 nM | AZIDE-ATSP-7041 (E5W) (peptide)
8 nM | AZIDE-ATSP-7041 (L1 TO D-ALA) (peptide)
53.9 nM | AZIDE-ATSP-7041 (L1A, E5A, Q9A, S12A) (peptide)
5.2 nM | AZIDE-ATSP-7041 (L1D, E5D, A8D) (peptide)
9.5 nM | AZIDE-ATSP-7041 (L1G) (peptide)
22.6 nM | AZIDE-ATSP-7041 (L1P) (peptide)
9.1 nM | AZIDE-ATSP-7041 (L1R, A8R, A13R) (peptide)
64.6 nM | AZIDE-ATSP-7041 (L1R, Q9R, S12K) (peptide)
117 nM | AZIDE-ATSP-7041 (L1R, Y6F, L9R) (peptide)
16.5 nM | AZIDE-ATSP-7041 (L1W) (peptide)
371 nM | AZIDE-ATSP-7041 (L1Y, E5Y, A8Y) (peptide)

Kd | Substance
18.5 nM | AZIDE-ATSP-7041 (Q9 TO D-ALA) (peptide)
54.3 nM | AZIDE-ATSP-7041 (Q9A) (peptide)
19.1 nM | AZIDE-ATSP-7041 (Q9G) (peptide)
45.8 nM | AZIDE-ATSP-7041 (Q9P) (peptide)
86 nM | AZIDE-ATSP-7041 (Q9W) (peptide)
0.73 nM | AZIDE-ATSP-7041 (S12E) (peptide)
12.4 nM | AZIDE-ATSP-7041 (S12G) (peptide)
50.1 nM | AZIDE-ATSP-7041 (S12P) (peptide)
48 nM | AZIDE-ATSP-7041 (S12W) (peptide)
70.5 nM | AZIDE-ATSP-7041 (T2 TO D-ALA) (peptide)
71.5 nM | AZIDE-ATSP-7041 (T2V) (peptide)
204 nM | AZIDE-ATSP-7041 (T2W) (peptide)
5.3 nM | AZIDE-ATSP-7041 (W7 TO 3,4-DICHLORO-PHE) (peptide)
1 nM | AZIDE-ATSP-7041 (W7 TO TRIFLUOROMETHYL-PHE) (peptide)
3.3 nM | AZIDE-ATSP-7041 (Y6F) (peptide)
14.2 nM | AZIDE-ATSP-7041(A13E) (peptide)
4600 nM | AZIDE-ATSP-7041(W7A) (peptide)
2.4 nM | NH2-EEE-AZIDE-SGS-PM2-EEE (peptide)

What follows are substances tested against human Mdm2 (1-125) (human) (assay: fluorescence polarisation; competitive fluorescence anisotropy: 250 nM Mdm2 (1-125) with 50 nM FAM-labeled 12/1 peptide, competing peptide titrated; apparent Kd from the fit with Kd1 = […]; PBS pH 7.4, 0.001% Tween-20; geometric means). Details: not given.
Sequence of human Mdm2 (1-125) (human) (Q00987 1-125): as above

Kd | Substance
2.46 nM | ALRN-6924 (Sulanemadlin, MP-4897) (peptide)

Molecular target: human Mdm2 1-125 (human)
Experiment: fluorescence polarisation; competitive fluorescence anisotropy: unlabelled peptide titrated against 250 nM Mdm2 (1-125) with 50 nM FAM-labelled 12/1 peptide (FAM-…-NH2); PBS pH 7.4, 0.001% Tween-20; apparent Kd, geometric means
Details: not given
Remark: another data set of the same source

Kd | Substance
48.7 nM | AZIDE-ATSP-7041 (E5A) (peptide)
38 nM | AZIDE-ATSP-7041 (E5A,Q9A) (peptide)
30.9 nM | AZIDE-ATSP-7041 (E5A,S12A) (peptide)
36.2 nM | AZIDE-ATSP-7041 (E5L, A8L) (peptide)
96 nM | AZIDE-ATSP-7041 (L1A, E5A, Q9A) (peptide)
41.7 nM | AZIDE-ATSP-7041 (L1A,E5A) (peptide)
21.1 nM | AZIDE-ATSP-7041 (L1A,Q9A) (peptide)
16.1 nM | AZIDE-ATSP-7041 (L1A,S12A) (peptide)
26.5 nM | AZIDE-ATSP-7041 (L1A,T2A) (peptide)
45.3 nM | AZIDE-ATSP-7041 (Q9A,S12A) (peptide)
272 nM | AZIDE-ATSP-7041 (T2A,E5A) (peptide)
79.5 nM | AZIDE-ATSP-7041 (T2A,Q9A) (peptide)
37.1 nM | AZIDE-ATSP-7041 (T2A,S12A) (peptide)
156 nM | AZIDE-KK-ATSP-7041 (L1A,T2A,E5A,Q9A,S12A) (peptide)

Molecular target: human Mdm2 (1-125) (human)
Experiment: fluorescence polarisation; competitive fluorescence anisotropy: 250 nM Mdm2 (1-125) with 50 nM FAM-labeled 12/1 peptide, competing peptide titrated; apparent Kd from the fit with Kd1 = […]; PBS pH 7.4, 0.001% Tween-20; geometric means
Details: not given
Remark: another data set of the same source

Kd | Substance
2.5 nM | ALRN-6924 (Sulanemadlin, MP-4897) (peptide)
7800 nM | azide-ATSP-7041 (E5P) (peptide)
5 nM | azide-ATSP-7041 (L1D, E5D, A8D) (MP-495) (peptide)
15 nM | azide-ATSP-7041 (L1N, E5N, A8N, S12N, A13N, A14N) (MP-359) (peptide)
115 nM | azide-ATSP-7041 with Cba10 substituted by Ala (peptide)
56 nM | azide-ATSP-7041 with Cba10 substituted by Leu (peptide)

What follows are substances tested against human Mdm2 1-125 (human) (assay: fluorescence polarisation). Details: not given.

Substance | Kd
AZIDE-ATSP-7041 (A8 TO D-ALA) (peptide) | 65.4 nM
AZIDE-ATSP-7041 (S12A) (peptide) | 36.2 nM
AZIDE-ATSP-7041 (W7 TO 6-FLURO-1-TRP) (peptide) | 1 nM

What follows are substances tested against human Mdm2 (1-125) (human) (assay: fluorescence polarisation). Details: not given.

Substance | Kd
azide-ATSP-7041 (MP-081) (peptide) | 5 nM

Source: publication PMC10786919, “Design-rules for stapled peptides with in vivo activity and their application to Mdm2/X antagonists” (Nature Communications, 2024)
